Assay results: the supplement of paper PMC7877785
± gives the uncertainty stated by the source.

Test: self-splicing fitness, log relative to wild type (ln ratio); higher = more splicing; Tetrahymena group I intron in knt gene, E. coli kanamycin selection, DiMSum; sequences stand for … in CUCUCU…GGAGGGAAAAGUUAUCAGGCAUGCACCUGGUAGCUAGUCUUUAAACCAAUAGAUUGCAUCGGUUUAAAAGGCAAGACCGUCAAAUUGCGGGAAAGGGGUCAACAGCCGUUCAGUACCAAGUCUCAGGGGAAACUUUGAGAUGGCCUUGCAAAGGGUAUGGUAAUAAGCUGACGGACAUGGUCCUAACCACGCAGCCAAGUCCUAAGUCAACAGAUCUUCUGUUGAUAUGGAUGCAGUUCACAGACUAAAUGUCGGUCGGGGAAGAUGUAUUCUUCUCAUAAGAUAUAGUCGGACCUCUCCUUAAUGGGAGCUAGCGGAUGAAGUGAUGCAACACUGGAGCCGCUGGGAACUAAUUUGUAUGCGAAAGUAUAUUGAUUAGUUUUGGAGUACUCGUGGUCG
Outline: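 Fitness was computed with DiMSum as the error-weighted combination of replicate fold changes, kanamycin versus none, each normalised to wild type. The library randomised all eight intron nucleotides of the P1ex region, with the intron placed in the knt kanamycin-resistance gene on pET-22b(+) in E. coli BL21(DE3). Six replicate transformations were grown overnight at 37°C or 30°C on LB agar with or without 25 μg/mL kanamycin, plus 100 μg/mL carbenicillin, 50 μM IPTG and 0.2% rhamnose. Pooled colonies were amplicon-sequenced on an Illumina HiSeq 2500.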

Row | Sequence | self-splicing fitness (ln) (30 °C) | self-splicing fitness (ln) (37 °C)
1 | CUCUAGCAAUAUUACGCCAA | -2.35 ± 0.47 | -2.31 ± 0.45
2 | CUCUAGCAAUAUUACGCCAC | -2.66 ± 0.28 | 
3 | CUCUAGCAAUAUUACGCGAC | -3.14 ± 0.24 | -2.75 ± 0.3
4 | CUCUAGCAAUAUUACGCGGG | -3.39 ± 0.18 | -1.41 ± 0.14
5 | CUCUAGCAAUAUUACGCUAU | -3.8 ± 0.39 | -2.79 ± 0.3
6 | CUCUAGCAAUAUUACGGCUU | -3.45 ± 0.32 | -3.52 ± 0.42
7 | CUCUAGCAAUAUUACGGUCA | -3.27 ± 0.29 | -3.17 ± 0.37
8 | CUCUAGCAAUAUUACGUAAG | -1.57 ± 0.11 | -0.426 ± 0.15
9 | CUCUAGCAAUAUUACGUACU | -3.33 ± 0.27 | -2.39 ± 0.25
10 | CUCUAGCAAUAUUACGUCGU | -3.66 ± 0.26 | -4.15 ± 0.36
11 | CUCUAGCAAUAUUACGUCUG | -2.34 ± 0.12 | -2.27 ± 0.18
12 | CUCUAGCAAUAUUACGUGAU | -3.45 ± 0.15 | -3.92 ± 0.24
13 | CUCUAGCAAUAUUACGUGUG | -2.93 ± 0.11 | -2.89 ± 0.14
14 | CUCUAGCAAUAUUACGUUGC | -3.71 ± 0.3 | -3.08 ± 0.35
15 | CUGAAGCAAUAUUACGAUAU | -3.39 ± 0.16 | -1.27 ± 0.19
16 | CUGAAGCAAUAUUACGAUCG | 0.00255 ± 0.12 | -0.0487 ± 0.13
17 | CUGAAGCAAUAUUACGCGAG | -0.671 ± 0.088 | -0.527 ± 0.11
18 | CUGAAGCAAUAUUACGCGAU | -0.358 ± 0.071 | 0.0463 ± 0.086
19 | CUGAAGCAAUAUUACGCGUG | -0.382 ± 0.041 | 0.0264 ± 0.063
20 | CUGAAGCAAUAUUACGCUCU | -3.29 ± 0.25 | -3.3 ± 0.47
21 | CUGAAGCAAUAUUACGCUUA | -3.82 ± 0.3 | -2.13 ± 0.23
22 | CUGAAGCAAUAUUACGCUUC | -3.51 ± 0.19 | -2.56 ± 0.19
23 | CUGAAGCAAUAUUACGGGAC | -0.993 ± 0.072 | -0.612 ± 0.1
24 | CUGAAGCAAUAUUACGGGCA | -3.04 ± 0.22 | -1.25 ± 0.2
25 | CUGAAGCAAUAUUACGGGGA | -3.06 ± 0.43 | -2.36 ± 0.37
26 | CUGAAGCAAUAUUACGGUAG | -0.283 ± 0.054 | -0.509 ± 0.061
27 | CUGAAGCAAUAUUACGUACU | -3.61 ± 0.31 | -2.92 ± 0.34

Row | Sequence | self-splicing fitness (ln) (30 °C) | self-splicing fitness (ln) (37 °C)
28 | CUGAAGCAAUAUUACGUCCG | 0.226 ± 0.083 | 0.658 ± 0.13
29 | CUGAAGCAAUAUUACGUCUA | -0.846 ± 0.077 | -0.487 ± 0.1
30 | CUGAAGCAAUAUUACGUGCU | -4.66 ± 0.34 | -2.95 ± 0.34
31 | CUGAAGCAAUAUUACGUUAA | -3.39 ± 0.16 | -2.65 ± 0.28
32 | CUGAAGCAAUAUUACGUUAG | -0.376 ± 0.063 | 0.25 ± 0.096
33 | CUGAAGCAAUAUUACGUUUU | -3.46 ± 0.2 | -3.22 ± 0.17
34 | CUGCAGCAAUAUUACGACGC | -3.79 ± 0.27 | -3.06 ± 0.29
35 | CUGCAGCAAUAUUACGACGU | -2.98 ± 0.18 | -2.49 ± 0.29
36 | CUGCAGCAAUAUUACGAGCU | -2.93 ± 0.18 | -2.25 ± 0.21
37 | CUGCAGCAAUAUUACGAUCU | -4.3 ± 0.43 | -2.46 ± 0.27
38 | CUGCAGCAAUAUUACGCCUA |  | -0.55 ± 0.23
39 | CUGCAGCAAUAUUACGCCUC | -4.25 ± 0.42 | -2.16 ± 0.5
40 | CUGCAGCAAUAUUACGCGCU | -2.68 ± 0.2 | -2.27 ± 0.22
41 | CUGCAGCAAUAUUACGCGGG | -3.94 ± 0.23 | -1.65 ± 0.18
42 | CUGCAGCAAUAUUACGCUAG | -3.01 ± 0.17 | -2.02 ± 0.24
43 | CUGCAGCAAUAUUACGCUAU | -4.29 ± 0.25 | -3.04 ± 0.25
44 | CUGCAGCAAUAUUACGCUCA |  | -2.21 ± 0.35
45 | CUGCAGCAAUAUUACGCUUC |  | -1.03 ± 0.21
46 | CUGCAGCAAUAUUACGGAAG | -1.56 ± 0.072 | -0.784 ± 0.095
47 | CUGCAGCAAUAUUACGGACC | -5.3 ± 0.36 | -2.18 ± 0.31
48 | CUGCAGCAAUAUUACGGCAC | -3.13 ± 0.14 | -0.857 ± 0.12
49 | CUGCAGCAAUAUUACGGCAU | -0.953 ± 0.057 | -0.378 ± 0.071
50 | CUGCAGCAAUAUUACGGCGU |  | -1.04 ± 0.32
51 | CUGCAGCAAUAUUACGGUCC | -3.4 ± 0.23 | -2.99 ± 0.37
52 | CUGCAGCAAUAUUACGGUCU | -3.44 ± 0.17 | -2.07 ± 0.2
53 | CUGCAGCAAUAUUACGGUGG | -3.9 ± 0.19 | -3.09 ± 0.24
54 | CUGCAGCAAUAUUACGUCGA | -3.05 ± 0.12 | -1.65 ± 0.1

Row | Sequence | self-splicing fitness (ln) (30 °C) | self-splicing fitness (ln) (37 °C)
55 | CUGCAGCAAUAUUACGUGAC | -0.842 ± 0.063 | 0.23 ± 0.084
56 | CUGCAGCAAUAUUACGUGCC | -2.23 ± 0.21 | -2.26 ± 0.26
57 | CUGCAGCAAUAUUACGUGUA | -3.82 ± 0.23 | -2.63 ± 0.16
58 | CUGCAGCAAUAUUACGUGUU | -4.86 ± 0.31 | -2.28 ± 0.19
59 | CUGGAGCAAUAUUACGAAUU |  | -1.27 ± 0.29
60 | CUGGAGCAAUAUUACGACGA | -1.9 ± 0.29 | -1.7 ± 0.33
61 | CUGGAGCAAUAUUACGAGGU | -3.48 ± 0.23 | -2.11 ± 0.17
62 | CUGGAGCAAUAUUACGAUGC |  | -1.84 ± 0.4
63 | CUGGAGCAAUAUUACGAUGG | -3.66 ± 0.26 | -1.47 ± 0.22
64 | CUGGAGCAAUAUUACGCAAA | -3.87 ± 0.42 | 
65 | CUGGAGCAAUAUUACGCCGU | -2.44 ± 0.4 | -1.06 ± 0.38
66 | CUGGAGCAAUAUUACGCUUC | -2.1 ± 0.28 | 
67 | CUGGAGCAAUAUUACGGAGA | -3.11 ± 0.42 | 
68 | CUGGAGCAAUAUUACGGCGG | -0.649 ± 0.16 | -1.44 ± 0.26
69 | CUGGAGCAAUAUUACGGGCC |  | -2.19 ± 0.31
70 | CUGGAGCAAUAUUACGGUAC | -2.41 ± 0.18 | -2.84 ± 0.27
71 | CUGGAGCAAUAUUACGUAGA |  | -2.67 ± 0.2
72 | CUGGAGCAAUAUUACGUAGG | -1.78 ± 0.071 | -1.4 ± 0.095
73 | CUGGAGCAAUAUUACGUCGC | -2.03 ± 0.46 | -2.57 ± 0.48
74 | CUGGAGCAAUAUUACGUCUG | 0.206 ± 0.068 | 0.0818 ± 0.099
75 | CUGGAGCAAUAUUACGUGAC | -1.85 ± 0.18 | -0.992 ± 0.24
76 | CUGGAGCAAUAUUACGUGUC | -3.17 ± 0.2 | -3.18 ± 0.27
77 | CUGUAGCAAUAUUACGAACU | -2.78 ± 0.26 | 
78 | CUGUAGCAAUAUUACGACUU | -2.12 ± 0.21 | -1.36 ± 0.33
79 | CUGUAGCAAUAUUACGAGGU | -4.23 ± 0.28 | -2.42 ± 0.21
